This note sets out measurements from PMC2517984, “TatBC, TatB, and TatC form structurally autonomous units within the twin arginine protein transport system of Escherichia coli” (Febs Letters, 2007).

For data set [1], the target named is T1, TatC with a hexa-histidine tag on the C-terminus, co-produced with TatB (with or without TatA, TatD, TatE) (Escherichia coli, UniProt P69423 1-258).
T1 construct: TatC, integral membrane protein of the Escherichia coli Tat system; protomer molecular weight printed as 28.9 kDa; The printed protomer weight of 28.9 kDa fits the whole TatC protein; also called TatCHis; TatCHis of Tat(A)BCHis; source: E. coli strain DADE (MC4100 ΔtatABCDΔtatE), overproduced from pFAT75CH (TatABCHisDE) or pFAT75CHΔA (TatBCHis); digitonin-solubilized membranes; not shown: His6, …
T1 sequence (looked up): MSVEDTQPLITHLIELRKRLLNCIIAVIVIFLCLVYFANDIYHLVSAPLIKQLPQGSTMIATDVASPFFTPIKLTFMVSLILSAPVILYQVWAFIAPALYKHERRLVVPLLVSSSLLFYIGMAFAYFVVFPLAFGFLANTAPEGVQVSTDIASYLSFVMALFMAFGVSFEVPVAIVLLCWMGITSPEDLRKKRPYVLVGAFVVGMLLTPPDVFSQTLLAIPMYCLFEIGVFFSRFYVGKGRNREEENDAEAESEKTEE
In words: co-purification by Ni(II) affinity chromatography + SEC; TatCHis-containing complexes from digitonin-solubilized membranes of strain DADE producing TatABCHisDE; Ni(II) HiTrap column, then Superose 6 in 20 mM MOPS-HCl pH 7.2, 200 mM NaCl, 0.1% digitonin; peak fraction on SDS-PAGE, Coomassie. As to conditions: partners not purified.

Data set [2] deals with the molecule itself. In words: native gel or EMSA; BN-PAGE (5-18% gradient) of digitonin-solubilized whole membranes of strain DADE overproducing TatBHis, TatABCHisDE or TatBCHis; immunoblot with anti-TatB or anti-His tag.
Data set [3] concerns the molecule itself. In words: native gel or EMSA; BN-PAGE (4-16% gradient) of TatCHis variants purified in digitonin from the Tat wild-type strain C43(DE3); Coomassie stained. (In EMSA bound probe runs differently from free probe, usually more slowly.)

B1: TatB, untagged, co-produced with TatCHis (natural protein, Escherichia coli, UniProt P69425 1-171, looked up)
chain: MFDIGFSELLLVFIIGLVVLGPQRLPVAVKTVAGWIRALRSLATTVQNELTQELKLQEFQDSLKKVEKASLTNLTPELKASMDELRQAAESMKRSYVANDPEKASDEAHTIHNPVVKDNEAAHEGVTPAAAQTQASSPEQKPETTPEPVVKPAADAEPKTAAPSPSSSDKP
notes: TatB, integral membrane protein of the Escherichia coli Tat system; protomer molecular weight printed as 18.4 kDa; source: E. coli strain DADE (MC4100 ΔtatABCDΔtatE), overproduced from pFAT75CH or pFAT75CHΔA; digitonin-solubilized membranes
B1: the binding result in data set [1] is on record as “binds”.

B2: TatB with a C-terminal hexa-histidine tag (natural protein, Escherichia coli, UniProt P69425 1-171, looked up)
chain: B1 chain
notes: TatB, integral membrane protein of the Escherichia coli Tat system; protomer molecular weight printed as 18.4 kDa; Produced in the absence of any other Tat components; detected with anti-TatB serum; also called TatBHis; source: E. coli strain DADE (MC4100 ΔtatABCDΔtatE), overproduced from pFAT586; digitonin-solubilized membranes
A word on the stoichiometry N: it is a count of units in the complex or per binding partner. B2: in data set [2], the “stoichiometry N” value is at most 4.

B3: TatC with a hexa-histidine tag on the C-terminus, produced alone from pFAT588 (natural protein, Escherichia coli (strain MC4100), UniProt P69423 1-258, looked up)
chain: MVSVEDTQPLITHLIELRKRLLNCIIAVIVIFLCLVYFANDIYHLVSAPLIKQLPQGSTMIATDVASPFFTPIKLTFMVSLILSAPVILYQVWAFIAPALYKHERRLVVPLLVSSSLLFYIGMAFAYFVVFPLAFGFLANTAPEGVQVSTDIASYLSFVMALFMAFGVSFEVPVAIVLLCWMGITSPEDLRKKRPYVLVGAFVVGMLLTPPDVFSQTLLAIPMYCLFEIGVFFSRFYVGKGRNREEENDAEAESEKTEE
notes: TatC, Escherichia coli; tatC gene amplified from chromosomal DNA of strain MC4100, cloned NcoI/BglII into pQE60; protomer molecular weight printed as 28.9 kDa; also called TatCHis; source: E. coli strain C43(DE3) or its ΔtatABC derivative C43ΔTat(DE3), overproduced from pFAT588; digitonin-solubilized membranes; not shown: His6, C-terminal, kept
For the molecule B3, the “stoichiometry N” value in data set [3] is at most 7.
